Molecular target: T1, rFimR (Porphyromonas gingivalis (ATCC 33277?)) (UniProt B2RJ77)
T1 sequence: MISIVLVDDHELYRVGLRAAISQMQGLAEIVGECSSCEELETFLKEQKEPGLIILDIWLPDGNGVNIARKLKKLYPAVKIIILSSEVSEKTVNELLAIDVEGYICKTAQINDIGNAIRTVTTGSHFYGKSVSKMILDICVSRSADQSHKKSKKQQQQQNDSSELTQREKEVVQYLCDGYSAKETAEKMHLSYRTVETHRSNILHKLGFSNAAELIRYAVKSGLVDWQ
Experiment: EMSA

| Sequence | binding |
| --- | --- |
| TGTAACGGGTTCTGCCTCGTTGTCTTTGTTACAAGCTGTCATAGCAAGAGCAGCAAGTCCCAACAAGAAAAACTTTGTTTTTTTCATCTCGTTTTTGTTTTAAAAGTGAATATTGTTTTCTAAAAATCTAATCTTTTCCCATTTAGAGATTGTCTTGCATATAGCGTCG (double strand) [fimA promoter (176 bp)] | no binding |
| CAGATGGGTTGTTGCTCAAGGAGAACGTCGCCAATACCTAAGCAAGAAAAGAGGAACTGTTCCAGAAAATACTTGGGTTACTCCGGGTTCTGGTTTCGTTCCTACCAGCAGCACTTTCTAT (double strand) [mfa1 coding region (121 bp)] | no binding |

From publication PMC1974823
